Test results published in patent US20220048951A1.
Several values for one entry are separate records, joined by “and”; a condition that tells them apart may be missing. Equal entries are not always repeated.

T1: CD20 on CD20 positive lymphoma cells (Daudi, Raji) (human) (UniProt P11836)
T1 sequence: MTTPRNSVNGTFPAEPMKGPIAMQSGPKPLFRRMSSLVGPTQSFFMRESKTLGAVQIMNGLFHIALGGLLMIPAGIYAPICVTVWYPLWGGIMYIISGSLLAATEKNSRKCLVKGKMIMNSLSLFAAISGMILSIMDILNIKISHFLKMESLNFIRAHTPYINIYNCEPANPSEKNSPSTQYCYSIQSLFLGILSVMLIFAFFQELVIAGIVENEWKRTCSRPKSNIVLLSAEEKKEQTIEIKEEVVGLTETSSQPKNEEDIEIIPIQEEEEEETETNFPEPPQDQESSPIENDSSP


Target: T1, CD20 on CD20 positive lymphoma cells (Daudi, Raji) (human)
Experiment: cell-based or functional assay

Row | IC50 nM, membrane integrity 2 h, Daudi (CD20 positive) [nM] | IC50 nM, membrane integrity 5 h, Daudi (CD20 positive) [nM] | caspase 3/7 activation relative to staurosporine (100%), CD20 positive cells, 5 h | Binder | IC50 nM, cell viability 24 h, Daudi (CD20 positive) [nM] | IC50 nM, cell viability 46 h, Daudi (CD20 positive) [nM]
1 | – | – | – | anti-CD20-Phor18 minibody conjugate Fv-CH3-CH3-Fv-Phor18 (protein) DIQLTQSPAILSASPGEKVTMTCRASSSVSYIHWFQQKPGSSPKPWIYATSNLASGVPVRFSGSGSGTSYSLTISRVEAEDAATYYCQQWTSNPPTFGGGTKLEIGSTSGGGSGGGSGGGGSSVQLQQPGAELVKPGASVKMSCKASGYTFTSYNMHWVKQTPGRGLEWIGAIYPGNGDTSYNQKFKGKATLTADKSSSTAYMQLSSLTSEDSAVYYCARSTYYGGDWYFDVWGQGTTVTVSSGQPREPQVYTLPPSRDELTKNQVSLTCLVKGFYPSDIAVEWESNGQPENNYKTTPPVLDSDGSFFLYSKLTVDKSRWQQGNVFSCSVMHEALHNHYTQKSLSLSPGKGSTSGGGSGGGSGGGGSSGQPREPQVYTLPPSRDELTKNQVSLTCLVKGFYPSDIAVEWESNGQPENNYKTTPPVLDSDGSFFLYSKLTVDKSRWQQGNVFSCSVMHEALHNHYTQKSLSLSPGKVQLQQPGAELVKPGASVKMSCKASGYTFTSYNMHWVKQTPGRGLEWIGAIYPGNGDTSYNQKFKGKATLTADKSSSTAYMQLSSLTSEDSAVYYCARSTYYGGDWYFDVWGQGTTVTVSSGSTSGGGSGGGSGGGGSSDIQLTQSPAILSASPGEKVTMTCRASSSVSYIHWFQQKPGSSPKPWIYATSNLASGVPVFSGSGSGTSYSLTISRVEAEDAATYYCQQWTSNPPTFGGGTKLEIGSKFAKFAKKFAKFAKKFAK | 10.5 | 3.6
2 | 110 | 112 | 18.3% and 29.3% | anti-CD20 scFv-Phor18 conjugate (C-terminus) (scFv) scFv: HHHHHHDIQLTQSPAILSASPGEKVTMTCRASSSVSYIHWFQQKPGSSPKPWIYATSNLASGVPVRFSGSGSGTSYSLTISRVEAEDAATYYCQQWTSNPPTFGGGTKLEIGSTSGGGSGGGSGGGGSSVQLQQPGAELVKPGASVKMSCKASGYTFTSYNMHWVKQTPGRGLEWIGAIYPGNGDTSYNQKFKGKATLTADKSSSTAYMQLSSLTSEDSAVYYCARSTYYGGDWYFDVWGQGTTVTVSSGSKFAKFAKKFAKFAKKFAK | 10 | 1.5
